Reference: patent US20230357429A1 (JANUX THERAPEUTICS, published 2023)
Residue numbers refer to the chain shown, from its start. Numbers in names are those of the source. Where no end group is shown, it is not given here.

T1: Human TROP2 ECD (31-274 AA), biotinylated (human, UniProt P09758 31-274, biotinylated (site not stated))
T1 construct: also called tumor-associated calcium signal transducer 2; Human TROP2-biotin
T1 sequence: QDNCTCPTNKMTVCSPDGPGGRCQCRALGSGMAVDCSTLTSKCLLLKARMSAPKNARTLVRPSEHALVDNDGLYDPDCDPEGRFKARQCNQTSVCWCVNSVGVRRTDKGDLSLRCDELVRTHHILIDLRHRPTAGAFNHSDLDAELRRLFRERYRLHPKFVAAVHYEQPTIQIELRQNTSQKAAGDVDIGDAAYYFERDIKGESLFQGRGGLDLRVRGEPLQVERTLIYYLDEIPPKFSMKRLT

B1: TCE-3 (bispecific antibody)
light: not shown
heavy: QVQLQQSGSELKKPGASVKVSCKASGYTFTNYGMNWVKQAPGQGLKWMGWINTYTGEPTYTDDFKGRFAFSLDTSVSTAYLQISSLKADDTAVYFCAAGGFGSSYWYFDVWGQGSLVTVSSASTKGPSVFPLAPSSKSTSGGTAALGCLVKDYFPEPVTVSWNSGALTSGVHTFPAVLQSSGLYSLSSVVTVPSSSLGTQTYICNVNHKPSNTKVDKKVEPKSC
B2: TCE-6 (bispecific antibody)
light: DIQLTQSPSSLSASVGDRVSITCKASQDVSIAVAWYQQKPGKAPKLLIYSASYRYTGVPDRFSGSGSGTDFTLTISSLQPEDFAVYYCQQHYITPLTFGAGTKVEIKRTVAAPSVFIFPPSDEQLKSGTASVVCLLNNFYPREAKVQWKVDNALQSGNSQESVTEQDSKDSTYSLSSTLTLSKADYEKHKVYACEVTHQGLSSPVTKSFNRGEC
heavy: not shown
B3: PC-12 (bispecific antibody)
light: GGVDFCGLYHWPICYQGGGGSGGLSGRSDAGSPLGLAGSGGSDIQLTQSPSSLSASVGDRVSITCKASQDVSIAVAWYQQKPGKAPKLLIYSASYRYTGVPDRFSGSGSGTDFTLTISSLQPEDFAVYYCQQHYITPLTFGAGTKVEIKRTVAAPSVFIFPPSDEQLKSGTASVVCLLNNFYPREAKVQWKVDNALQSGNSQESVTEQDSKDSTYSLSSTLTLSKADYEKHKVYACEVTHQGLSSPVTKSFNRGEC
heavy: not shown
notes: anti-TROP2 R98A
B4: PC-14 (bispecific antibody)
light: B3 light
heavy: not shown
notes: anti-TROP2 F108A
B5: PC-15 (bispecific antibody)
light: not shown
heavy: GGVDFCGLYHWPICYQGGGGSGGLSGRSDAGSPLGLAGSGGSQVQLQQSGSELKKPGASVKVSCKASGYTFTNYGMNWVKQAPGQGLKWMGWINTYTGEPTYTDDFKGRFAFSLDTSVSTAYLQISSLKADDTAVYFCARGGFGSSYWYADVWGQGSLVTVSSASTKGPSVFPLAPSSKSTSGGTAALGCLVKDYFPEPVTVSWNSGALTSGVHTFPAVLQSSGLYSLSSVVTVPSSSLGTQTYICNVNHKPSNTKVDKKVEPKSC
notes: anti-TROP2 F108A
B6: PC-10 (bispecific antibody)
light: GGVDFCGLYHWPICYQGGGGSSGGSAAGLLAPPGGLSGRSDAGGGGSDIQLTQSPSSLSASVGDRVSITCKASQDVSIAVAWYQQKPGKAPKLLIYSASYRYTGVPDRFSGSGSGTDFTLTISSLQPEDFAVYYCQQHYITPLTFGAGTKVEIKRTVAAPSVFIFPPSDEQLKSGTASVVCLLNNFYPREAKVQWKVDNALQSGNSQESVTEQDSKDSTYSLSSTLTLSKADYEKHKVYACEVTHQGLSSPVTKSFNRGEC
heavy: not shown
notes: anti-TROP2 D109A
B7: PC-9 (bispecific antibody)
light: not shown
heavy: B5 heavy with A150F, D151A
notes: anti-TROP2 D109A
B8: TBD-2 (anti-TROP2 Fab, LC Q89A) (Fab, V domains shown)
VH: QVQLQQSGSELKKPGASVKVSCKASGYTFTNYGMNWVKQAPGQGLKWMGWINTYTGEPTYTDDFKGRFAFSLDTSVSTAYLQISSLKADDTAVYFCARGGFGSSYWYFDVWGQGSLVTVSS
VL: DIQLTQSPSSLSASVGDRVSITCKASQDVSIAVAWYQQKPGKAPKLLIYSASYRYTGVPDRFSGSGSGTDFTLTISSLQPEDFAVYYCAQHYITPLTFGAGTKVEIKR
B9: TBD-9 (anti-TROP2 Fab, LC L96A) (Fab, V domains shown)
VH: B8 VH
VL: B8 VL with A89Q, L96A
B10: TBD-7 (anti-TROP2 Fab, LC T94A) (Fab, V domains shown)
VH: B8 VH
VL: B8 VL with A89Q, T94A
B11: TBD-10 (anti-TROP2 Fab, LC T97A) (Fab, V domains shown)
VH: B8 VH
VL: B8 VL with A89Q, T97A
B12: TBD-8 (anti-TROP2 Fab, LC P95A) (Fab, V domains shown)
VH: B8 VH
VL: B8 VL with A89Q, P95A
B13: TBD-6 (anti-TROP2 Fab, LC I93A) (Fab, V domains shown)
VH: B8 VH
VL: B8 VL with A89Q, I93A
notes: also called TBD-6 (LC I93A mutant)
B14: TBD-3 (anti-TROP2 Fab, LC Q90A) (Fab, V domains shown)
VH: B8 VH
VL: B8 VL with A89Q, Q90A
B15: TBD-19 (anti-TROP2 Fab, HC W106A) (Fab, V domains shown)
VH: B8 VH with W106A
VL: B8 VL with A89Q

These binders were tested against T1, Human TROP2 ECD (31-274 AA), … (assay: ELISA on immobilized TROP2).

| EC50 | Binder |
| --- | --- |
| 3.18 nM | B1 |
| 0.46 nM | B2 |
| 352 nM | B3 |
| 333 nM | B4 |
| 363 nM | B5 |

Target: T1, Human TROP2 ECD (31-274 AA), …
Experiment: ELISA on immobilized TROP2
Remark: another data set of the same source

| EC50 | Binder |
| --- | --- |
| 181 nM | B6 |
| 194 nM | B7 |

Target: T1, Human TROP2 ECD (31-274 AA), …
Experiment: ELISA on immobilized TROP2
Remark: another data set of the same source

| EC50 | Binder |
| --- | --- |
| 0.37 nM | B2 |

Each binder was assayed against T2, TCE-10 (anti-CD3 scFv R100A; anti-TROP2 wt) (assay: competition ELISA, TCE on captured CD3).
T2 construct: scFv on the Fab heavy chain; also called TCE-10 (R100A)

| IC50 | Binder |
| --- | --- |
| 13000 nM | GSQCLGPEWEVCPY (cysteine pairing not given here; also: biotinylated, site not given here, mask peptide for the CD3 scFv) [Peptide-66] |
| 4740 nM | GSACLGPEWEVCPY (cysteine pairing not given here; also: biotinylated, site not given here, mask peptide for the CD3 scFv) [Peptide-75] |

These binders were tested against T3, TCE-11 (anti-CD3 scFv H101A; anti-TROP2 wt) (assay: competition ELISA, TCE on captured CD3).
T3 construct: scFv on the Fab heavy chain; also called TCE-11 (H101A)

| IC50 | Binder |
| --- | --- |
| 2620 nM | GSQCLGPEWEVCPY (cysteine pairing not given here; also: biotinylated, site not given here, mask peptide for the CD3 scFv) [Peptide-66] |
| 2080 nM | GSACLGPEWEVCPY (cysteine pairing not given here; also: biotinylated, site not given here, mask peptide for the CD3 scFv) [Peptide-75] |

What follows are binders tested against T4, TCE-13 (anti-CD3 scFv N103A; anti-TROP2 wt) (assay: competition ELISA, TCE on captured CD3).
T4 construct: scFv on the Fab heavy chain; also called TCE-13 (N103A)

| IC50 | Binder |
| --- | --- |
| 21400 nM | GSQCLGPEWEVCPY (cysteine pairing not given here; also: biotinylated, site not given here, mask peptide for the CD3 scFv) [Peptide-66] |
| 47700 nM | GSACLGPEWEVCPY (cysteine pairing not given here; also: biotinylated, site not given here, mask peptide for the CD3 scFv) [Peptide-75] |

These binders were tested against T5, TCE-14 (anti-CD3 scFv F104A; anti-TROP2 wt) (assay: competition ELISA, TCE on captured CD3).
T5 construct: scFv on the Fab heavy chain; also called TCE-14 (F104A)

| IC50 | Binder |
| --- | --- |
| 7090 nM | GSQCLGPEWEVCPY (cysteine pairing not given here; also: biotinylated, site not given here, mask peptide for the CD3 scFv) [Peptide-66] |
| 4210 nM | GSACLGPEWEVCPY (cysteine pairing not given here; also: biotinylated, site not given here, mask peptide for the CD3 scFv) [Peptide-75] |

The binders below were run against T6, TCE-20 (anti-CD3 scFv S110A; anti-TROP2 wt) (assay: competition ELISA, TCE on captured CD3).
T6 construct: scFv on the Fab heavy chain; also called TCE-20 (S110A)

| IC50 | Binder |
| --- | --- |
| 721000 nM | GSQCLGPEWEVCPY (cysteine pairing not given here; also: biotinylated, site not given here, mask peptide for the CD3 scFv) [Peptide-66] |
| 120000 nM | GSACLGPEWEVCPY (cysteine pairing not given here; also: biotinylated, site not given here, mask peptide for the CD3 scFv) [Peptide-75] |

Each binder was assayed against T7, TCE-31 (anti-CD3 scFv W238A; anti-TROP2 wt) (assay: competition ELISA, TCE on captured CD3).
T7 construct: scFv on the Fab heavy chain; also called TCE-31 (W238A)

| IC50 | Binder |
| --- | --- |
| 51500 nM | GSQCLGPEWEVCPY (cysteine pairing not given here; also: biotinylated, site not given here, mask peptide for the CD3 scFv) [Peptide-66] |

Each binder was assayed against T8, TCE-33 (anti-CD3 scFv F240A; anti-TROP2 wt) (assay: competition ELISA, TCE on captured CD3).
T8 construct: scFv on the Fab heavy chain; also called TCE-33 (F240A)

| IC50 | Binder |
| --- | --- |
| 3710 nM | GSQCLGPEWEVCPY (cysteine pairing not given here; also: biotinylated, site not given here, mask peptide for the CD3 scFv) [Peptide-66] |
| 7460 nM | GSACLGPEWEVCPY (cysteine pairing not given here; also: biotinylated, site not given here, mask peptide for the CD3 scFv) [Peptide-75] |

What follows are binders tested against T1, Human TROP2 ECD (31-274 AA), … (assay: ELISA, ratio of EC50 to that of TBD-1 wt).

| Fold shift in EC50 relative to wt | Binder |
| --- | --- |
| 23.5 fold | B8 |
| 84 fold | B9 |
| 1 fold | B10 |
| 1.5 fold | B11 |
| 1 fold | B12 |
| 1.5 fold | B13 |
| 1.5 fold | B14 |

What follows are binders tested against T1, Human TROP2 ECD (31-274 AA), … (assay: ELISA, biotinylated TROP2 ECD on neutravidin plate, Fab titrated).

| EC50 | Binder |
| --- | --- |
| 4.7 nM | B8 |
| 16.8 nM | B9 |
| 0.2 nM | B10 |
| 0.3 nM | B11 |
| 0.2 nM | B12 |
| 0.3 nM | B13 |
| 0.3 nM | B14 |

Target: T1, Human TROP2 ECD (31-274 AA), …
Experiment: as above
Remark: another data set of the same source

| EC50 | Binder |
| --- | --- |
| 702 nM | B15 |

These binders were tested against T1, Human TROP2 ECD (31-274 AA), … (assay: BLI (Octet), dissociation half-life from biotinylated human TROP2 ECD).

| t1/2 | Binder |
| --- | --- |
| 24 min | B8 |
| 5 min | B9 |
| 39 min | B10 |
| 37 min | B11 |
| 61 min | B12 |
| 28 min | B13 |
| 27 min | B14 |

These binders were tested against T1, Human TROP2 ECD (31-274 AA), … (assay: BLI (Octet), biotinylated human TROP2 ECD on SAX sensor, Fab 6.25-50 nM).

| Kd | Binder |
| --- | --- |
| 10.4 nM | B8 |
| 8.4 nM | B9 |
| 0.6 nM | B10 |
| 0.6 nM | B11 |
| 0.3 nM | B12 |
| 0.7 nM | B13 |
| 0.7 nM | B14 |

The binders below were run against T1, Human TROP2 ECD (31-274 AA), … (assay: ELISA: biotinylated TROP2 captured on neutravidin plate, Fab titrated, HRP secondary antibody).

| EC50 | Binder |
| --- | --- |
| 4.71 nM | B8 |
| 16.8 nM | B9 |
| 0.22 nM | B10 |
| 0.29 nM | B11 |
| 0.2 nM | B12 |
| 0.29 nM | B13 |
| 0.27 nM | B14 |

Target: T1, Human TROP2 ECD (31-274 AA), …
Experiment: as above
Remark: another data set of the same source

| EC50 | Binder |
| --- | --- |
| 702 nM | B15 |

Each binder was assayed against T9, TCE-1 (anti-CD3 scFv wt; anti-TROP2 Fab wt) (assay: competition ELISA: peptide titrated and pre-incubated with a constant concentration of TCE-1, binding of TCE-1 to plate-bound biotinylated CD3 detected).
T9 construct: anti-CD3 scFv fused to the N-terminus of the anti-TROP2 Fab heavy chain; also called TCE-1 (wt)

| binding result | Binder |
| --- | --- |
| binds | GSQCLGPEWEVCPY (cysteine pairing not given here; also: biotinylated, site not given here, mask peptide for the CD3 scFv) [Peptide-66] |
| binds | GSACLGPEWEVCPY (cysteine pairing not given here; also: biotinylated, site not given here, mask peptide for the CD3 scFv) [Peptide-75] |
